# Experimental data as given in patent US20240216513A1, “FATTY ACID-BIFUNCTIONAL DEGRADER CONJUGATES AND THEIR METHODS OF USE” (Novartis AG, priority 2021, published 2024).
# Legend:
# [1] = BTK FAC plasma stability assay, dog plasma; type: in vitro ADME
# [2] = BTK FAC plasma stability assay, cyno plasma; type: in vitro ADME, cynomolgus monkey
# [3] = BTK FAC plasma stability assay, PBS buffer arm; type: physicochemical; details: for Plasma stability (h) PBS: incubation to 24 h
# Outline: (§1)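 Compound from a 500 µM acetonitrile:water working solution was spiked into K3-EDTA plasma or Dulbecco's PBS and incubated with shaking at 38 °C. Samples taken at 0, 2, 6 and 24 h were precipitated with cold acetonitrile containing glyburide internal standard. Semi-quantitative LC-MS/MS used analyte:internal standard peak area ratios.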
# [4] = BTK FAC plasma stability assay, rat plasma; type: in vitro ADME
# Outline: as §1
# [5] = BTK FAC plasma stability assay, mouse plasma; type: in vitro ADME
# Outline: as §1
# BTK C481S = molecular target: T1, BTK C481S (Homo sapiens, UniProt Q06187, C481S); assay: PD screen in TMD8 BTK C481S mutant tumor-bearing mice, BTK levels and compound concentrations in blood and tumor; type: in vivo, mouse; details: 25 umol/kg
# T1 construct: endogenous in cells; host or cells: TMD8 BTK C481S mutant tumour xenografts in mice
# T1 sequence (Q06187 whole entry C481S): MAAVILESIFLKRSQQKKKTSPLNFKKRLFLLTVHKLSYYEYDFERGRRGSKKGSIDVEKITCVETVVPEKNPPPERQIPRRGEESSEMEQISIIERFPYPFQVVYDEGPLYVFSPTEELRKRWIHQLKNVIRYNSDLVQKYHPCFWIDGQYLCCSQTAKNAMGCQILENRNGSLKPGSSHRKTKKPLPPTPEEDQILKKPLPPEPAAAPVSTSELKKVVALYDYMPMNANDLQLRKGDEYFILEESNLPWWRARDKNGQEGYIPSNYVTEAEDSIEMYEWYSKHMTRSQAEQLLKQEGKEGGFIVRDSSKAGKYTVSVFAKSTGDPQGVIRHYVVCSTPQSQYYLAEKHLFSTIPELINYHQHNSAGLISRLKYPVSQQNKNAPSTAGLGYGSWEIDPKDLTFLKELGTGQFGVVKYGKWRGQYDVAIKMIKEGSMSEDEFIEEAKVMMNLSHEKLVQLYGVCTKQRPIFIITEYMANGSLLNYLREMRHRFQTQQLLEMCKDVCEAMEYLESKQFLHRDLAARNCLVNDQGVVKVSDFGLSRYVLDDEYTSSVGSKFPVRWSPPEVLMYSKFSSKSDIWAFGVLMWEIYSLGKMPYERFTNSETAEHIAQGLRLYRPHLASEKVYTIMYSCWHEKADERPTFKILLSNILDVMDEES
# Experimental: All animal studies were conducted in accordance with ethics and procedures covered by permit nos. BS-1975 issued by the Kantonales Veterinäramt Basel-Stadt and in strict adherence to guidelines of the Eidgenössisches Tierschutzgesetz and the Eidgenössische Tierschutzverordnung, Switzerland. All animals had access to food and water ad libitum and were identified with transponders. They were housed in a specific pathogen-free facility with a 12-h light/12-h dark cycle. For PD screen experiments in TMD8 BTK C481S mutant tumor-bearing mice, FAC was injected once. Animals were randomized into groups of 2 and tissue samples collected at day 0, 4, 7 and in some studies day 10 as well. Blood samples were collected and tumors were excised, weighed, frozen in liquid nitrogen and cryogenic dry pulverized with the CryoPrep™ system (model CP-02, Covaris). Concentrations of compounds in blood and tumors were determined by UPLC/MS-MS and BTK levels were analyzed by Meso Scale Discovery.
Compound,% Release of degrader after 24 h dog [1] [%],half-life at 5 µM ([1]; read-out: Plasma stability (h) dog (converted)) [h],% Release of degrader after 24 h cyno ([2]; 24 h) [%],"half-life at 5 µM ([2]; monkey, read-out: Plasma stability (h) cyno) [h]",% Release of degrader after 24 h PBS [3] [%],Plasma stability (h) PBS [3] [h],% Release of degrader after 24 h rat [4] [%],half-life at 5 µM ([4]; incubation to 24 h) [h],% Release of degrader after 24 h mouse [5] [%],half-life at 5 µM ([5]; incubation to 24 h) [h],Duration of BTK degradation in mouse ≥90% (BTK C481S; i.v.) [days],Duration of BTK degradation in mouse ≥90% (BTK C481S; s.c.) [days],Plasma stability (h) dog [1] [h],Plasma stability (h) rat ([4]; incubation to 24 h) [h],Plasma stability (h) mouse ([5]; incubation to 24 h) [h]
"CCCCCCCCCCCN(C(=O)CCCCCCCCCCO)C(CCC(=O)NCCOCCOCCOCCOCCOCCOCCOCCOCCOCCOCCOCCOCCC(=O)NCCC(=O)NCCC(=O)OC(C)(C)c1ccc(C(=O)Nc2cc(F)cc(-c3ncnc4[nH]c(-c5ccc(CCN6CCC7(CC6)CCN(C(=O)c6ccc(OC)c(N8CCC(=O)NC8=O)c6)CC7)cc5)cc34)c2C)c(F)c1)C(=O)O (stereo not shown) [Example A5, 2-(4-((3-(6-(4-(2-(9-(3-(2,4-Dioxotetrahydropyrimidin-1(2H)-yl)-4-methoxybenzoyl)-3,9-diazaspiro[5.5]undecan-3-yl)ethyl)phenyl)-7H-pyrrolo[2,3-d]pyrimidin-4-yl)-5-fluoro-2-methylphenyl)carbamoyl)-3-fluorophenyl)-55-(11-hydroxy-N-undecylundecanamido)-2-methyl-4,8,12,52-tetraoxo-3,15,18,21,24,27,30,33,36,39,42,45,48-tridecaoxa-7,11,51-triazahexapentacontan-56-oic acid]",1,> 48,0.5,> 48,0.1,>48,2.5,> 48,2,> 48,10,10,–,–,–
"CCCCCCCCCCCN(C(=O)CCCCCCCCCC(=O)O)C(CCC(=O)NCCOCCOCCOCCOCCOCCOCCOCCOCCOCCOCCOCCOCCC(=O)N[C@@H](C)C(=O)OC(C)(C)c1ccc(C(=O)Nc2cc(F)cc(-c3ncnc4[nH]c(-c5ccc(CCN6CCC7(CC6)CCN(C(=O)c6ccc(OC)c(N8CCC(=O)NC8=O)c6)CC7)cc5)cc34)c2C)c(F)c1)C(=O)O (stereo partly drawn) [Example A16, (5S)-50-Carboxy-2-(4-((3-(6-(4-(2-(9-(3-(2,4-dioxotetrahydropyrimidin-1(2H)-yl)-4-methoxybenzoyl)-3,9-diazaspiro[5.5]undecan-3-yl)ethyl)phenyl)-7H-pyrrolo[2,3-d]pyrimidin-4-yl)-5-fluoro-2-methylphenyl)carbamoyl)-3-fluorophenyl)-2,5-dimethyl-4,7,47,52-tetraoxo-51-undecyl-3,10,13,16,19,22,25,28,31,34,37,40,43-tridecaoxa-6,46,51-triazadohexacontan-62-oic acid]",5,–,–,–,2,>48,11,–,1.9,–,4,–,31.2,>48,>48
"CCCCCCCCCCCN(C(=O)CCCCCCCCCC(=O)O)C(CCC(=O)NCCOCCOCCOCCOCCOCCOCCOCCOCCOCCOCCOCCOCCC(=O)N[C@H](C)C(=O)OC(C)(C)c1ccc(C(=O)Nc2cc(F)cc(-c3ncnc4[nH]c(-c5ccc(CCN6CCC7(CC6)CCN(C(=O)c6ccc(OC)c(N8CCC(=O)NC8=O)c6)CC7)cc5)cc34)c2C)c(F)c1)C(=O)O (stereo partly drawn) [Example A17, (5R)-50-Carboxy-2-(4-((3-(6-(4-(2-(9-(3-(2,4-dioxotetrahydropyrimidin-1(2H)-yl)-4-methoxybenzoyl)-3,9-diazaspiro[5.5]undecan-3-yl)ethyl)phenyl)-7H-pyrrolo[2,3-d]pyrimidin-4-yl)-5-fluoro-2-methylphenyl)carbamoyl)-3-fluorophenyl)-2,5-dimethyl-4,7,47,52-tetraoxo-51-undecyl-3,10,13,16,19,22,25,28,31,34,37,40,43-tridecaoxa-6,46,51-triazadohexacontan-62-oic acid]",3.7,–,–,–,1.2,>48,2.5,–,2.3,–,4,–,33.3,>48,>48
"CCCCCCCCCCCN(C(=O)CCCCCCCCCC(=O)O)[C@@H](CCC(=O)NCCOCCOCCOCCOCCOCCOCCOCCOCCOCCOCCOCCOCCC(=O)N(CCC(=O)OC(C)(C)c1ccc(C(=O)Nc2cc(F)cc(-c3ncnc4[nH]c(-c5ccc(CCN6CCC7(CC6)CCN(C(=O)c6ccc(OC)c(N8CCC(=O)NC8=O)c6)CC7)cc5)cc34)c2C)c(F)c1)CC(=O)O)C(=O)O [Example A24, (S)-2-(3-((2-(4-((3-(6-(4-(2-(9-(3-(2,4-Dioxotetrahydropyrimidin-1(2H)-yl)-4-methoxybenzoyl)-3,9-diazaspiro[5.5]undecan-3-yl)ethyl)phenyl)-7H-pyrrolo[2,3-d]pyrimidin-4-yl)-5-fluoro-2-methylphenyl)carbamoyl)-3-fluorophenyl)propan-2-yl)oxy)-3-oxopropyl)-3,43,48-trioxo-47-undecyl-6,9,12,15,18,21,24,27,30,33,36,39-dodecaoxa-2,42,47-triazaheptapentacontane-1,46,57-tricarboxylic acid]",5.9,–,–,–,2.8,>48,7.2,–,7.4,–,10,10,>48,>48,>48
"CCCCCCCCCCCN(C(=O)CCCCCCCCCC(=O)O)C(CCC(=O)NCCOCCOCCOCCOCCOCCOCCOCCOCCOCCOCCOCCOCCC(=O)NCc1cc(C(=O)OC(C)(C)c2ccc(C(=O)Nc3cc(F)cc(-c4ncnc5[nH]c(-c6ccc(CCN7CCC8(CC7)CCN(C(=O)c7ccc(OC)c(N9CCC(=O)NC9=O)c7)CC8)cc6)cc45)c3C)c(F)c2)ccn1)C(=O)O (stereo not shown) [Example A26, 46-Carboxy-1-(4-(((2-(4-((3-(6-(4-(2-(9-(3-(2,4-dioxotetrahydropyrimidin-1(2H)-yl)-4-methoxybenzoyl)-3,9-diazaspiro[5.5]undecan-3-yl)ethyl)phenyl)-7H-pyrrolo[2,3-d]pyrimidin-4-yl)-5-fluoro-2-methylphenyl)carbamoyl)-3-fluorophenyl)propan-2-yl)oxy)carbonyl)pyridin-2-yl)-3,43,48-trioxo-47-undecyl-6,9,12,15,18,21,24,27,30,33,36,39-dodecaoxa-2,42,47-triazaoctapentacontan-58-oic acid]",10.9,–,–,–,7,>48,7.6,–,20.4,–,7,–,39.2,>48,30.5
"CCCCCCCCCCCN(C(=O)CCCCCCCCCC(=O)O)C(CCC(=O)NCCOCCOCCOCCOCCOCCOCCOCCOCCOCCOCCOCCOCCC(=O)NCC(=O)NCN(C(=O)c1ccc(C(C)(C)O)cc1F)c1cc(F)cc(-c2ncnc3[nH]c(-c4ccc(CCN5CCC6(CC5)CCN(C(=O)c5ccc(OC)c(N7CCC(=O)NC7=O)c5)CC6)cc4)cc23)c1C)C(=O)O (stereo not shown) [Example A36, 51-Carboxy-2-(3-(6-(4-(2-(9-(3-(2,4-dioxotetrahydropyrimidin-1(2H)-yl)-4-methoxybenzoyl)-3,9-diazaspiro[5.5]undecan-3-yl)ethyl)phenyl)-7H-pyrrolo[2,3-d]pyrimidin-4-yl)-5-fluoro-2-methylphenyl)-1-(2-fluoro-4-(2-hydroxypropan-2-yl)phenyl)-1,5,8,48,53-pentaoxo-52-undecyl-11,14,17,20,23,26,29,32,35,38,41,44-dodecaoxa-2,4,7,47,52-pentaazatrihexacontan-63-oic acid]",0,–,–,–,0,>48,0,–,0.7,–,10,–,>48,>48,38.6
